Assay results reported in paper PMC12990809.

What was measured:
Experiment in all cases: pulldown
[1] = target: T1, HNRNPR (Gallus gallus) (UniProt A0A8V0YGA1); conditions: 20 nM protein, 1.5 uM RNA pool; 20 mM HEPES pH 7.8, 70 mM KCl, 10 mM NaCl, 10% glycerol, 2 mM DTT, 0.1 ug/uL BSA; 30 min, 4 C (protocol of this paper; not …); cited from earlier work
T1 sequence: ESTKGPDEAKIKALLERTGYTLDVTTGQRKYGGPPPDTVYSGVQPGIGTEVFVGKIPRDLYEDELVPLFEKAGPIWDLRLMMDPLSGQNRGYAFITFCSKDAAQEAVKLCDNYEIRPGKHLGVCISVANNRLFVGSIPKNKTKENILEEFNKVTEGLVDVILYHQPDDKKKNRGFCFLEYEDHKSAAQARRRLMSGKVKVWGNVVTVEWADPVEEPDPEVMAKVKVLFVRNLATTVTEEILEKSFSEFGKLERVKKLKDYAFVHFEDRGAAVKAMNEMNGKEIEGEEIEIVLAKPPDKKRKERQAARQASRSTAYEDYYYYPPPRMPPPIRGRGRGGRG

[2] = target: T2, rbm24a (Tetraodon nigroviridis) (UniProt H3CUV7); conditions: 20 nM protein, 1.5 uM RNA pool; 20 mM HEPES pH 7.8, 70 mM KCl, 10 mM NaCl, 10% glycerol, 2 mM DTT, 0.1 ug/uL BSA; 30 min, 4 C (protocol of this paper; not …); cited from earlier work
T2 sequence: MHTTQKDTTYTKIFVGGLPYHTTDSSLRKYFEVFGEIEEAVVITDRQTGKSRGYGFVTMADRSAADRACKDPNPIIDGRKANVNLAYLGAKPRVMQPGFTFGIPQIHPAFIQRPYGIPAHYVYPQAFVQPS

[3] = target: T3, spo5 (Schizosaccharomyces pombe) (UniProt Q2L4W6); conditions: 20 nM protein, 1.5 uM RNA pool; 20 mM HEPES pH 7.8, 70 mM KCl, 10 mM NaCl, 10% glycerol, 2 mM DTT, 0.1 ug/uL BSA; 30 min, 4 C
T3 sequence: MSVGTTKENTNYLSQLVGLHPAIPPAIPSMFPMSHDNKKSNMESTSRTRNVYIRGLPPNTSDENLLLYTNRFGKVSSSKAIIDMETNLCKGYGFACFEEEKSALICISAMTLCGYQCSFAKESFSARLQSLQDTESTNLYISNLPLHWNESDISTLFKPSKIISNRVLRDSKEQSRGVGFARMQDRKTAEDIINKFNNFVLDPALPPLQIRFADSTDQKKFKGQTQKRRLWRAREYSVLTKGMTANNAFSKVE

[4] = target: T4, CBG14639 (Caenorhabditis briggsae) (UniProt A8XKC4); conditions: 20 nM protein, 1.5 uM RNA pool; 20 mM HEPES pH 7.8, 70 mM KCl, 10 mM NaCl, 10% glycerol, 2 mM DTT, 0.1 ug/uL BSA; 30 min, 4 C
T4 sequence: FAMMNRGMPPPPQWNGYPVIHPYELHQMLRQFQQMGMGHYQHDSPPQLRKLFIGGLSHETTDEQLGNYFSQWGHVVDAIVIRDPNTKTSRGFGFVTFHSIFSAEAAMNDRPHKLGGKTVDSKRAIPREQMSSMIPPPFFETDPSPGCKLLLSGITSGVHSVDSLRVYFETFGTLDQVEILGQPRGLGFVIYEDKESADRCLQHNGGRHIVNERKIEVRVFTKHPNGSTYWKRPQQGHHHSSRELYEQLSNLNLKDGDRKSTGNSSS

[5] = target: T5, CBG04067 ins404_V (Caenorhabditis briggsae) (UniProt Q6E3D5); conditions: 20 nM protein, 1.5 uM RNA pool; 20 mM HEPES pH 7.8, 70 mM KCl, 10 mM NaCl, 10% glycerol, 2 mM DTT, 0.1 ug/uL BSA; 30 min, 4 C
T5 sequence: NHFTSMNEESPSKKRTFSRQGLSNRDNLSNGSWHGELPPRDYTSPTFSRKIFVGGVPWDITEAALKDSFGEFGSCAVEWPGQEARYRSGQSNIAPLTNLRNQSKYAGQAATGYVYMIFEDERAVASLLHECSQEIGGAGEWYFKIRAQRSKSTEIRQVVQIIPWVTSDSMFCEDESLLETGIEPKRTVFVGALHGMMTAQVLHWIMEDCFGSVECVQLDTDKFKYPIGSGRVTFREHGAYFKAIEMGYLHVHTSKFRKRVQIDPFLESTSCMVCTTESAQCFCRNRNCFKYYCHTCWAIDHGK

[6] = target: T6, csx1 (Schizosaccharomyces pombe) (UniProt O13759); conditions: 20 nM protein, 1.5 uM RNA pool; 20 mM HEPES pH 7.8, 70 mM KCl, 10 mM NaCl, 10% glycerol, 2 mM DTT, 0.1 ug/uL BSA; 30 min, 4 C
T6 sequence: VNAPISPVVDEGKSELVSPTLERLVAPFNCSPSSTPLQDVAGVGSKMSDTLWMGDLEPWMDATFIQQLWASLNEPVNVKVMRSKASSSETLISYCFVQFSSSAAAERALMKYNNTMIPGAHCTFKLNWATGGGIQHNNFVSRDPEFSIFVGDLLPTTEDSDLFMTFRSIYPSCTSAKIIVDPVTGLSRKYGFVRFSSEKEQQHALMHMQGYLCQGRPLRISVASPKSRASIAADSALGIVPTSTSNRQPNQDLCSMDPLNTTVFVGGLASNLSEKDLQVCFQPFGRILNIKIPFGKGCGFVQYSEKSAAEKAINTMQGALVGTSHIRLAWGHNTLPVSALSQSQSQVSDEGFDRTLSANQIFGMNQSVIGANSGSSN

[7] = target: T7, Y69A2AR.32 L314S (Caenorhabditis elegans) (UniProt H2L0S1); conditions: 20 nM protein, 1.5 uM RNA pool; 20 mM HEPES pH 7.8, 70 mM KCl, 10 mM NaCl, 10% glycerol, 2 mM DTT, 0.1 ug/uL BSA; 30 min, 4 C
T7 sequence: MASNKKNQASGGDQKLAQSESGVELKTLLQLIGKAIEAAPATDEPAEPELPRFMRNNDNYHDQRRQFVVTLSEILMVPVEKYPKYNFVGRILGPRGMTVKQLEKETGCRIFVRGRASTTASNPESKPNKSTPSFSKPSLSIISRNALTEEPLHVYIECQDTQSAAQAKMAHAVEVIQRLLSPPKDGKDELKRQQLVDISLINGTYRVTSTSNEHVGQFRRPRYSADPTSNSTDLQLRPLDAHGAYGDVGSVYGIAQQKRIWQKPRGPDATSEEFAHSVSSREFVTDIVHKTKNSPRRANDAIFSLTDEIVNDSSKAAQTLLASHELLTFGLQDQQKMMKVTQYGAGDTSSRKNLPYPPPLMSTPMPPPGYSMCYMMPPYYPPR

[8] = target: T8, PK27672.1 (Cannabis sativa) (UniProt A0A7J6HI09); conditions: 20 nM protein, 1.5 uM RNA pool; 20 mM HEPES pH 7.8, 70 mM KCl, 10 mM NaCl, 10% glycerol, 2 mM DTT, 0.1 ug/uL BSA; 30 min, 4 C
T8 sequence: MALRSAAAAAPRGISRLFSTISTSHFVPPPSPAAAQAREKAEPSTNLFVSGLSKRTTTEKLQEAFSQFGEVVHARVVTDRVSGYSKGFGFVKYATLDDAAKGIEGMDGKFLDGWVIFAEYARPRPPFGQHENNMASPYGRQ

[9] = target: T9, CBG13971 (Caenorhabditis briggsae) (UniProt A8XIX4); conditions: 20 nM protein, 1.5 uM RNA pool; 20 mM HEPES pH 7.8, 70 mM KCl, 10 mM NaCl, 10% glycerol, 2 mM DTT, 0.1 ug/uL BSA; 30 min, 4 C
T9 sequence: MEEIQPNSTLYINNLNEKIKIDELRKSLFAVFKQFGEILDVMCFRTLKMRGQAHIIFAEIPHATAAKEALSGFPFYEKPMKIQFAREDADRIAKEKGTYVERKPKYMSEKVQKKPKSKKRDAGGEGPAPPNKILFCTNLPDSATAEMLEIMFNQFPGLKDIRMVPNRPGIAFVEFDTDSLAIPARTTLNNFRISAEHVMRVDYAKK

[10] = target: T10, hnrnpr (Xenopus tropicalis) (UniProt A0A8J0QQ94); conditions: 20 nM protein, 1.5 uM RNA pool; 20 mM HEPES pH 7.8, 70 mM KCl, 10 mM NaCl, 10% glycerol, 2 mM DTT, 0.1 ug/uL BSA; 30 min, 4 C (protocol of this paper; not …); cited from earlier work
T10 sequence: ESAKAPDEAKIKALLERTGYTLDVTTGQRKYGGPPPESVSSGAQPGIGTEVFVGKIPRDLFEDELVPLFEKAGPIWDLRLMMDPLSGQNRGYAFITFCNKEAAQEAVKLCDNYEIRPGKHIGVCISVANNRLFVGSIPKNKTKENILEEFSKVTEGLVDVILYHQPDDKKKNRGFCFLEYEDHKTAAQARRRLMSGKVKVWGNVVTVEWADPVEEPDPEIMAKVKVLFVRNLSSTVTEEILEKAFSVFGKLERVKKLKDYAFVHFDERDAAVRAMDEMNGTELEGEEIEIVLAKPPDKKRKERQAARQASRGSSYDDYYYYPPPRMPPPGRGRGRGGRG

AAAUU [RNAcompete motif RNCMPT00288]
binding signal (z-score (mean of top ten 7-mers)) [1]: 6.51

UGUGUG [RNAcompete motif RNCMPT00285]
binding signal (z-score (mean of top ten 7-mers)) [2]: 10.2

AUAUUA [RNAcompete motif RNCMPT00311]
binding signal (z-score (mean of top ten 7-mers)) [3]: 7.81

AUUAGG [RNAcompete motif RNCMPT00331]
binding signal (z-score (mean of top ten 7-mers)) [4]: 8.86

GUUUUA [RNAcompete motif RNCMPT00341]
binding signal (z-score (mean of top ten 7-mers)) [5]: 9.44

UGUUUU [RNAcompete motif RNCMPT00325]
binding signal (z-score (mean of top ten 7-mers)) [6]: 9.34

UACUNG [RNAcompete motif RNCMPT00324]
binding signal (z-score (mean of top ten 7-mers)) [7]: 22.8

AGUACA [RNAcompete motif RNCMPT00342]
binding signal (z-score (mean of top ten 7-mers)) [8]: 9.79

GCACUU [RNAcompete motif RNCMPT00323]
binding signal (z-score (mean of top ten 7-mers)) [9]: 11.2

AAAUU [RNAcompete motif RNCMPT00289]
binding signal (z-score (mean of top ten 7-mers)) [10]: 8.84
